Measured values: the nanobody polyreactivity screen of Harvey et al. (2022)

Test: yeast display, Sf9 membrane polyspecificity reagent, FACS + sequencing; frameworks hold sequencing errors
Method in brief: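 Sorting gates, low and high (top ~1%), were placed on anti-HA fluorescence to track expression and on streptavidin fluorescence to track reagent binding. A clone's polyreactivity label is taken from the gate it came out of. The reagent was 10% biotinylated, detergent-solubilized Sf9 membrane, applied for 1 hour at 4 °C to galactose-induced yeast display cells.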

| Sequence | polyreactivity (PSR sort gate) |
| --- | --- |
| QVQLVESGGGLVQAGGSLRLSCAASGRIFGLYLGWYRQAPGKERELVATITWRGGSTYYADSVKGRFTISRDNAKNTVYLHLNSVKPEDTEVYYCAARGYRGRMGYWGQGTQVTVSS | low polyreactivity |
| QVQLVESGGGLVQAGGSLRLSCAASGRIFDRNAMVWYRQEPWKERELVAAIDDSGGDTSYADSVKGRFTISRDNAKNTVYLQMNSLKPEDTAVYYCNAGYADFVTYPRYYYWGQGTQVTLSS | low polyreactivity |
| QVQLVESGGGLVQAGGSLRLSCAASGIIFPYYAMGWYRQAPGKERELVARITRRGGSTYYADSVKGRFTISRDNAKNTVYLQMNSLKPEDTAVYYCAAYAPYYRTMEYWGQGTQVTLSS | high polyreactivity |
| QVQLVESGGGLVQAGGSLRLSSAASAGIFAPNAMGLYRQAPGTEREFVAAISTGGGSTRYADSVKGRFTISRDNAKNTVYLQMNSLKPEDTAVYYCAATRVGVRRMDYWGQGTQVTVSS | low polyreactivity |
| QVQLVESGGGLVQAGGSLRLSCAASGRTFNGNAMGWYRQAPGKERELVAAISWSGGSTYYADSVKGRFTISRDNAKNTVYLQMNSLKPEDTAVYYCNADYFAWDLMYYWGQGTQVTVSS | low polyreactivity |
| QVQLVESGGGLVQAGGSLRLSCAASGFTFQYYTKGWYRQAPGKERELVAAISARGGSTYYADSVKGRFTISRDNAKNTVYLQMNSLKPEDTAVYYCNTVGIGAWGYSYPDEDNYWGQGTQVTVSS | low polyreactivity |
| QVQLVESGGGLVQAGGSLRLSCAASGSIFYGYAMGWYRQAPGKERELVAAISLSGGRTYYADSVKGRFTLSRDNAKNPVYLQRNSLKPEDTAVYYCAAQTRSSDGPSWYYYWGQGTQVTVSS | high polyreactivity |
| QVQLVESGGGLVHAGGSLRLSCAASGSNSNYYGMGWYRQAPGKERELVAAITWGGGRTNYADSVKGRFTISRDNAKNTVYLQMNSLKPEDTAVYYCAKVSVTHRYGAGGDYWGQGTQVTVSS | low polyreactivity |
| QVQLVESGGGLVQAGGSLRLSCAASGGTFDDYAMGWYRQAPGKERELVAAISSSGGSTYYADSVKGRITISRDNAKNTVYLEMNSLKPDDTAVYYCAVDAFWRHWYYPYESHHDYWGQGTQVTVSS | low polyreactivity |
| QVQVVESGGGLVQAGGSLRLSCAASGSTFEYNAMGWYRQAPGKERELVASSTNYADSVKGRFTISRDNATNTVYLKMNSLKPEDTAVYYCAREQGVNRNHDYWGQGTQVTVSS | low polyreactivity |
| QVQLQESGGVLVQEGGSLRLSCAASGNISPQADMGWYRQATGTERELVASIGTGGTTNYADSVKGRFTISRDNAKNTVYLQMNRLKPDDTAVYYCAAVRYEYNPYDYWGQGTQVTVSS | low polyreactivity |
| QVQLVESGGGLVQAGGSLRLSCAASGRIFVGNAMGWYRQAPGKEWALVAANSGSGDSTYYADSVKGRFTISRDNAKNTVYLQMISLKPEDTAVYYCNVDYDFVIYYYWYYPGYDYWGQGTQVTVSS | low polyreactivity |
| QVQLVESGGGLVQAGGSLRLSCAASGRIFPSYAMGWYRQAPGKERELVAAISSSGGRTYYADSVKGRFTISRDNAKNTVYLQKNSLKPEDTAVYYCNARSPAYFYQWLYSFRYDYWGQGTQVTVSS | high polyreactivity |
| QVQLVESGGGLVQAGGSLRLSCAASGIIFRNYAMGWYRQAPGKEREFVASITKRGGSTYYADSVKGRFTISRDNAKNTVYLQMNSLKPEDTAVYYCNTQWYRGRTEYGYWGQGTQVTVSS | high polyreactivity |
| QVQLVESGGGLVQAGGSLRLSCAASGITFTNYAMGWYRQAPGKERELVAAISSRGGRTYYADSVKGRFTISRDNAKNTVYLQMNSLKPEDTAVYYCAASFFQVYGDDYWGQGTQVTVSS | high polyreactivity |
| QVQLVESGAGIVQAGGSLRLSCAASGLTFANYVMGGYRQAPGKERELVAAISRSGGSTYYADSVKGRFTISRDNAKKTVNLQMNCLKPEDTAVYYCAAAAWDPKGSRYDSWGQGTQVSVSS | low polyreactivity |
| QVQLVESGGGLVQAGCSLRLSCAASGRTFPYYAMGWYRQAPGKERELVARIRSDGSTNYADSVKGRFTISRDNAKNTVYLQMNSLKPEDTAVYYCTADVGFEPPWYDWSWDNEYWGQGTQVSVSS | low polyreactivity |
| QVQLVESGGGLVQAGGSLRLSCAASGSTFPFYAMGWYRQAPGKERELVAAITSGGSTYADSVKGRFTISRDNAKNTVYLQMNSLKPEDTAVYYCAASWPRWCRFGYWGQGTQVTVSS | low polyreactivity |
| QVQLVESGGGLVQAGGRHRLSCAASGSIFTVYTIGWYRQAPGKEREFVAAINSRGGTTYYADSVKGRFTISRDNAKNTVYLQMNSLKPEDTAVYYCAAKQRPKSYGPGHYYWGQGTQVTVSS | high polyreactivity |
| QVQLVESGGGLVQAGGSLRLSCAASGFTFLGYVMGWYRQAPGKEREFVADITESGGRTYYADSVKGRFTISRDNAKNTVYLQMNSLKPEDTAVYYCAAELSYWGYYYSFDYWGQVTQVTVSS | low polyreactivity |
| QVPLVESGGGLVQAGGSLRLMCAASGRIFALYAMGWYRQAPGKERELVAAISWSAGRTYYADSVKGRFTISRDNAKNTVYLQMNSLKPEDTAVYYCAADTGRQYDYWGQGTQVTVSS | high polyreactivity |

| Sequence | polyreactivity (PSR sort gate) |
| --- | --- |
| QVQLVESGGGLVQAGGSLRLSCAASGFTFSTYAMGWYRQAPGKERELVAAISFSGGSTYYADSVKGRFTISRDNAKNTVYLQMNSLKPEDTAVYYCNAVFGYRLPGNYWGQGTQVTVSS | low polyreactivity |
| QVQLHESGGGLVQAGGSLRLSCAASGTISYAGPMGWYRQAPGKEREFVAGIGVGSNTNYADSVKGRYTIIRDNAKNTVYLQMTSLKPEETAVYYCAVGGYAPLGPPYWGQGTQVTVSS | low polyreactivity |
| QVQLVESGGGLVQAGGSLRLSCAASGRTFVPYTMGWYRQAPGKERELVAAISRSGARTYYADSVKGRFTISRDNAKNTVYLQMNSLKPEDTAVYYCVVIARYGYDYWGQGTQVTVSS | high polyreactivity |
| QVQLVESGGGLVQAGGSLRLSCAASGSTFFRYAMGLYRQAPGKERELVAAISWSGGTTYYADSVKGRFTISRDNAQNTVYLQMYSLKPEDTAVYYCNAVRQGHILDYWGQGTQVTVSS | low polyreactivity |
| QVQLVESGGGLVQAGGSLRLSCAASGSIFSFYAMGWYRQAPGKEMELVATISSGDNTNYADSVKGRFTISRDNAKNTVYLQMNSLKPEDNAVYYCAADAWGVDREYDYWGQGTQVTVSS | low polyreactivity |
| QVHLVESGGGIVQAGGILRLSCAASGNTFYENVMGWYRQTPGKEREFVAAITYIGGNTYYADSVKGRFTISRDNAKNTVYLQMNSLKPEDTAVYYCAAEWDWPTYYTYYWYFSYDYWGQGTQVTVSS | low polyreactivity |
| QVQLVESGGCLVQAGGSLRLSCAASGSTFTPYVMGWYRHAPGKERELVAAISKRGGSTYYADSVKGRFTISRDNAKNTVYLQMNRLKPEDTAVYYCAAVQPAWGNGYWGQGTQVTVSS | high polyreactivity |
| QVQLVESGGGLVQAGGSLRLSCAASGFTFQNYAMGWYRQAPGKERELVAAIDSRGGRTYYADSVKGRFTISRDNAKNTVYLQMNSLNPEDTAVYYCAGAENKRFGSVGYYYWGQGTQVTVSS | low polyreactivity |
| QVQLVETGGGLVQAGGSLRLSCAASGFIFGYNAMGWYRQAPGKERELVATISWSGGSTYYADSVKGRFTISRDNAKNTVYLQMNSLKPEDSAVYYCAAEGWERLGWVSWVTVDYWGQGTQVTVSS | low polyreactivity |
| QVQLVESGGGLVQAGGSLRLSCAASGFIIKFYAMGWYRQAPGKERELVATITFSSGTTYYADSVKGRFTISRDNAKNTVYLQMNSLKPEDTAVYYCAASTLPAWPYDGPAGPRYDYWGQGTQVTVSS | low polyreactivity |
| QVQLVESGGGLVQAGGSLRLSCAASGSIFELNAMGWYRQAPGKERELVAAIRWRTGRTYYADSVKGRFTISRDNAKNTVYLQMNSLKPEDTAVYYCAAPVRSGVRYTLDYWGQGTQVTVSS | high polyreactivity |
| QVQLVESGGGLVQAGGSLRLSCAASGFIFVAYALGWYRPAPGKERELVAAITSSGVTTYYADSVKGRFTISRDNAKNTVYLQMTSLKQDDTAVYFCAAYRRRSPFDYWGQGTQVTVSS | high polyreactivity |
| QVQLVESGGGLVQAGGSLRLSCAASGSTFDYNAMGWYRQAPGKERELVAAISARGTSTYYADSVKGRFTISRDNAKTTVYLQMNSLKPEDTAVYYCAARIHTAYYIFGYWGQGTQVTVSS | high polyreactivity |
| QVQLVESVGGLVQGGGSLRLSCAASGINFYRYALGWYRQAPGKERELVAAINRSGDSTYYADSVKGRFTISRDNAKNTVYLQMNSLKPEDTAVYSCAAQHSIYRNPGLDDYWGQGNQVTVSS | high polyreactivity |
| QVQLVESGGGIVQSGGSLRLSCDASGFIFGGNAMGWYIQAPGKERELVARISSGGITSYADSVKGRFTISRDNAKNTVYLHMNSQKPDDTAVYYCAARNGRIAWMNYWGQGTQVTVSS | low polyreactivity |
| QVQLVESGGGLLQAGGSLRLSCAASGITFGRNTMGWYRQAPGKERELVAAINSGGSTTYADSVKGRFTISRDNAKNTVYLQMISLKPEDSAVYYCNKSSTGWTATYDYWGQGTQVTVSS | low polyreactivity |
| QVQLVESGGGLVQAGGSLRLSCAASGSTFFYNAMGWSRQAPGKERELVAAIRFSGGSTRYADSVKGRFTISRDNAKNTVYLQMNSLKPEDTAVYYCNARGFRESIWYQYDYWGQGTQVTVSS | high polyreactivity |
| QVQLVESGGGLVQAGGSLRLSCAASGSTFYPNAMGWYRQAPGKERELVAAITDSVGTTNYADSVKGRFTISRDNAKNTVYLQMNSLKPEDTAVYYCAKVKSYWNGYRYYYWGQGTQVTVSS | low polyreactivity |
| QVQLVESGGGLVQAGGSLRLSCAASGRIFYSYAMGWYRQAPGKERELVAAITRTGGNTYYADSVKGRFTISRDNAKNTVYLQMNSLKPEDTAVYYCNAEYWKEHYPEIYYSWGQGTQVTVSS | low polyreactivity |
| QVQLVESGGGLVQAGGSLRLSCAASGSIFYLYTMGWYRQATRKERELVAGISNGDRTYYADSVKGRFTISRDNAKNTVYFQMNSLKPEDTAVYYCAKGWYRIKRNDYWGQGTQVTVAS | low polyreactivity |
